Results published in publication PMC3722562.

How the values were obtained:
HER2-GST fusion (human) = HER2-GST fusion (human) (UniProt P04626); assay: not stated (cited); settings: 2'-fluoro pyrimidines (general statement); Cell assays mostly in DPBS at 37 C (4 C for surface binding), washes DPBS, 0.5 M NaCl +/- 0.2 N acetic acid or trypsin; Qdot flow after 10% FBS/DPBS block …; cited from earlier work
[1] = molecular target: PSMA on PC3(PSMA+) cells (human?) (UniProt Q04609); assay: NIR cell uptake (QUSIM); settings: 10 nM, 15 min, 37 C, trypsin wash, 2'-fluoro pyrimidines, Cell assays mostly in DPBS at 37 C (4 C for surface binding), washes DPBS, 0.5 M NaCl +/- 0.2 N acetic acid or trypsin, Qdot flow after 10% FBS/DPBS block …
PSMA on PC3(PSMA+) cells (human?), sequence (Q04609 whole entry): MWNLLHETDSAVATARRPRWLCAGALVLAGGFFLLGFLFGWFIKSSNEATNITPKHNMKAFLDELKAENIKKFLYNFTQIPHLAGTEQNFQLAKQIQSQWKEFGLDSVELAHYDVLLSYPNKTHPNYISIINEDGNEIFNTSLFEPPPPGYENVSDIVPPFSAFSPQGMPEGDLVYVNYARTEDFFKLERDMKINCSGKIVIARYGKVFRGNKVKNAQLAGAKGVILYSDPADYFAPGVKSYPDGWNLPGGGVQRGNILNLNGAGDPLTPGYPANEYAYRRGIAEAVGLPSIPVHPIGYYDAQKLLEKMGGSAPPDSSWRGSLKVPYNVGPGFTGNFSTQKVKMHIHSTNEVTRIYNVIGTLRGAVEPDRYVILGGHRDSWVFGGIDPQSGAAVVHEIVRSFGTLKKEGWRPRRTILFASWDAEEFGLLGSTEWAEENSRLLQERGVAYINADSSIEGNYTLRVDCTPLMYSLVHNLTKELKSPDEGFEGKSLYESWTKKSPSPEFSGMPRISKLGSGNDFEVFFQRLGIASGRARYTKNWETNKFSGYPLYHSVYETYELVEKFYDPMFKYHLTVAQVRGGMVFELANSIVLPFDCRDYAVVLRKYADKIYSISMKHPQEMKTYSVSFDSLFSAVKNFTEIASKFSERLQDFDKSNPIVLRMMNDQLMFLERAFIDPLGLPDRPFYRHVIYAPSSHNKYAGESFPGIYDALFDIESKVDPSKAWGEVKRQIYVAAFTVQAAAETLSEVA

[2] = molecular target: PSMA (prostate specific membrane antigen) (human) (UniProt Q04609); assay: not stated (cited); settings: 2'-fluoro pyrimidines; Cell assays mostly in DPBS at 37 C (4 C for surface binding), washes DPBS, 0.5 M NaCl +/- 0.2 N acetic acid or trypsin; Qdot flow after 10% FBS/DPBS block …; cited from earlier work
PSMA (prostate specific membrane antigen) (human), sequence (Q04609 whole entry): as above

HER2 (rat) (rat) = HER2 (rat) (rat) (UniProt P06494); assay: not stated (cited); settings: 2'-fluoro pyrimidines; Cell assays mostly in DPBS at 37 C (4 C for surface binding), washes DPBS, 0.5 M NaCl +/- 0.2 N acetic acid or trypsin; Qdot flow after 10% FBS/DPBS block …; cited from earlier work
HER2 (rat) (rat), sequence (P06494 whole entry): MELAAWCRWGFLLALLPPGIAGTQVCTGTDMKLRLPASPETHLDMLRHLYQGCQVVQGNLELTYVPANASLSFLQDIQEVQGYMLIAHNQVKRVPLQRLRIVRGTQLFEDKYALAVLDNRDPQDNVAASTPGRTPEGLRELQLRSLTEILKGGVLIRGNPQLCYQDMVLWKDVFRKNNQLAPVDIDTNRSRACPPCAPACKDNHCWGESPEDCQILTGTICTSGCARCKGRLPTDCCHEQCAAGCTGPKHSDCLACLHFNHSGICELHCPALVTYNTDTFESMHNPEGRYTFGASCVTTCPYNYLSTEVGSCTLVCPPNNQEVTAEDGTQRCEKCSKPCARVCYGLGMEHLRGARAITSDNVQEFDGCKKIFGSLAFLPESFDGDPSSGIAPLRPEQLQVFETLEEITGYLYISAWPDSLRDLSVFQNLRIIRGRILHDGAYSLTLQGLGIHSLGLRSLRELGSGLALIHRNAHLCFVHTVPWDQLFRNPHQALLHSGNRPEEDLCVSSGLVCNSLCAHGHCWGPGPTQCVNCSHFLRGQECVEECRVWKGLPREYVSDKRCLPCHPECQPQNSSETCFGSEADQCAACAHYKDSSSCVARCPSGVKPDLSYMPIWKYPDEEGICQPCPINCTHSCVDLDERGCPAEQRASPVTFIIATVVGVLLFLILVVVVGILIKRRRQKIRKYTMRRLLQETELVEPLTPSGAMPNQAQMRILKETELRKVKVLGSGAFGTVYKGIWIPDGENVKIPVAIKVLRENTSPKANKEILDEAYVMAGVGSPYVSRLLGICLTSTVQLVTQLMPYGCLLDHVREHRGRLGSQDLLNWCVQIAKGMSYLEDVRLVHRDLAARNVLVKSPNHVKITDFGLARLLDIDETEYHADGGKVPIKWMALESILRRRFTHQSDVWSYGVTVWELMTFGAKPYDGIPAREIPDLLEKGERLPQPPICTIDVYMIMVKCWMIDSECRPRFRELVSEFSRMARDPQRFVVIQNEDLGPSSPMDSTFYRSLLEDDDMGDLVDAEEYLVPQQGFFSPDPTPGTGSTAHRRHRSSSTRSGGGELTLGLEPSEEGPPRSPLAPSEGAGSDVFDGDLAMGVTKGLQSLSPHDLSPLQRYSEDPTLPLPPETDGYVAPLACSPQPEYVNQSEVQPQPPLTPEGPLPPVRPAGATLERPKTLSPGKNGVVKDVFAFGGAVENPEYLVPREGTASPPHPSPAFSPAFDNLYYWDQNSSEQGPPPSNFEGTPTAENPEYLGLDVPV

TrkB (mouse) (mouse) = TrkB (mouse) (mouse) (UniProt P15209); assay: not stated (cited); settings: 2'-fluoro pyrimidines; Cell assays mostly in DPBS at 37 C (4 C for surface binding), washes DPBS, 0.5 M NaCl +/- 0.2 N acetic acid or trypsin; Qdot flow after 10% FBS/DPBS block …; cited from earlier work
TrkB (mouse) (mouse), sequence (P15209 whole entry): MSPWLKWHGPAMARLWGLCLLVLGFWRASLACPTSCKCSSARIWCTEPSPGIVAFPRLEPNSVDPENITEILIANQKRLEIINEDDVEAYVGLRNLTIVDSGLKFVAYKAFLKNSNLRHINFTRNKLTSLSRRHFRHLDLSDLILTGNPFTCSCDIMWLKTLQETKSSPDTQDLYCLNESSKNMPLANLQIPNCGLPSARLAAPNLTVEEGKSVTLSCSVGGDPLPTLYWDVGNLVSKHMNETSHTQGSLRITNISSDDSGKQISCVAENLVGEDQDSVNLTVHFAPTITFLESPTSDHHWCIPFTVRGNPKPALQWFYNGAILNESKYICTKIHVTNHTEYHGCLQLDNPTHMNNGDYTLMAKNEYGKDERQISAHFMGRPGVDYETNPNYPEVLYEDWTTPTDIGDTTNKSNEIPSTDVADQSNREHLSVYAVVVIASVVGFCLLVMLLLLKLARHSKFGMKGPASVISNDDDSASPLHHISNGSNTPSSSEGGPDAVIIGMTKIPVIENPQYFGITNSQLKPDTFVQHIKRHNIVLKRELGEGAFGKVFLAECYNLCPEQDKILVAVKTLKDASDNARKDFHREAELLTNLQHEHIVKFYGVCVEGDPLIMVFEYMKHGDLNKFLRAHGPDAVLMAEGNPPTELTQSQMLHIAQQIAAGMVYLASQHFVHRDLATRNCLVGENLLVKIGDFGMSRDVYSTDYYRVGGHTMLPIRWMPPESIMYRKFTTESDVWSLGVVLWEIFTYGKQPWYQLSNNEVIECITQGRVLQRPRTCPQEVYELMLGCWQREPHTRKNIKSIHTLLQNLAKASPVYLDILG

AGCCGCGAGGGGAGGGAUAGGGUAGGGCGCGGCU [hHER2-apt]
Kd (HER2-GST fusion (human)): 3.5 nM

GGGACCGAAAAAGACCUGACUUCUAUACUAAGUCUACGUUCCC [A9g]
binding signal (% of input internalized) ([1]; <1% in PSMA- cells): 13 | Kd [2]: 5 nM

GGGACCGAAAAAGACCUGGCUUCUAUACUAAGUCUACGUUCCC [A9g.6]
binding signal (% of input internalized) [1]: < 0.5

GGGAGGACGAUGCGGUCCUGUCGUCUGUUCGUCCCCAGACGACUCGCCCGA [E1]
Kd (HER2 (rat) (rat)): 60.8 nM

GGGAGGACGAUGCGGUCGUAUUAUCCGCUGCACGCCAGACGACUCGCCCGA [C4-3]
Kd (TrkB (mouse) (mouse)): 2 nM
